Assay results reported in article PMC5010387.

Target: ClC-ec1 C85A/H234C labelled with Cy5 (WT-Cy5) (Escherichia coli) (UniProt P37019)
Experiment: single-molecule photobleaching of subunits captured into liposomes (TIRF); high-density proteoliposomes (χ = 7.5 × 10^-6 subunit/lipid) diluted 10X to 1000X by freeze/thaw fusion with empty 2:1 POPE/POPG vesicles, incubated at room temperature, time course after freeze/thaw

mid-point of the convergence of the 1000X diluted sample to the reconstituted probabilities: 13 days
Substance: ClC-ec1 C85A/H234C labelled with Cy5 (WT-Cy5) (from UniProt P37019 1-473) (natural protein)
